Reference: patent US20160194391A1 (AstraZeneca / MedImmune, published 2016)
Read-outs that look alike come from different tables or passages of the source.

T1: human dimeric IL-23 (eBiosciences 34-8239) (human, UniProt P29460 23-328; Q9NPF7 20-189)
T1 sequence (looked up) 1: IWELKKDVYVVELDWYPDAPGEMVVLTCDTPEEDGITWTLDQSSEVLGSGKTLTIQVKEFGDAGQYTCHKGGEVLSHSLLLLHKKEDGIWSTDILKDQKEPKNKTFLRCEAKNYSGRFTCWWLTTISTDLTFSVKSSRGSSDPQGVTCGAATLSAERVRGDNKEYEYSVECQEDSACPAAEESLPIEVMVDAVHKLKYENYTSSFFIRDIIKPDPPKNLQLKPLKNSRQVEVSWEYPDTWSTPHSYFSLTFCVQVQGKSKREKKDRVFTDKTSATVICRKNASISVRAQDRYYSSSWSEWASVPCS
T1 sequence (looked up) 2: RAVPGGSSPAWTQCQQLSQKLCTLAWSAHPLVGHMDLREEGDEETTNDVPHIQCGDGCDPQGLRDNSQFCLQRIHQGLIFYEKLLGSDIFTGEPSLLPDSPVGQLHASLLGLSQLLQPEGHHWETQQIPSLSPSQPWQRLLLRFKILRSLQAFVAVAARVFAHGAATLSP


What was measured:
human IL-6 [1] = target: T2, human IL-6 (human, UniProt P05231 30-212); assay: cell-based or functional assay
[2] = target: T1, human dimeric IL-23 (eBiosciences …); assay: cell-based or functional assay
3×FLAG-IL-6 [3] = target: T3, 3×FLAG-IL-6 (human); assay: SPR, 3×FLAG-IL-6 captured by anti-FLAG M2 on protein G, scFv as analyte (1-100 nM)
T3 construct: it may hold the pre-pro-trypsin leader
T3 sequence (chain, as listed by the source limits assumed): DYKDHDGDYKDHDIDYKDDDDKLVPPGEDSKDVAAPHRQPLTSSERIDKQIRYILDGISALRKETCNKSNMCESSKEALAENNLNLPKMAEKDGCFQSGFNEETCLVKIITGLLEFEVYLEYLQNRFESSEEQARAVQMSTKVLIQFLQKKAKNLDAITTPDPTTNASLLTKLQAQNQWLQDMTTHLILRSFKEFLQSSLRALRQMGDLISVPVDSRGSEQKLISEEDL

human IL-6 [4] = target: T2, human IL-6; assay: cell-based or functional assay; remark: listed apart in the source
3×FLAG-IL-6 [5] = target: T3, 3×FLAG-IL-6; assay: SPR, 3×FLAG-IL-6 captured by anti-FLAG M2 on protein G, scFv as analyte (1-100 nM); remark: listed apart in the source
Description: Equilibrium constants for scFvs were determined as previously described; however, the protocol was modified so that an epitope tagged IL-6 was captured on the chip surface and the dissociation of anti-IL-6 scFvs from IL-6 was monitored. Briefly, anti-FLAG® M2 antibody (200472, Agilent Technologies, Santa Clara, Calif.) was bound to Protein G, and then 3×FLAG-IL-6 was captured by the anti-FLAG antibody. The anti-IL-6 scFvs were assayed over a range of concentrations between 1 and 100 nM.
Anti IL-6 scFvs, humanized using the one step method, retained IL-6 neutralization activity when expressed in mammalian cells, as shown for 13A8 (FIG. 11A and FIG. 11B), 28D2 and 9C8 v3-1 (FIG. 11C).

Row | Binder | EC50, B9 cell line bioassay (human IL-6 [1]) [ng/mL] | EC50, mouse splenocyte assay [2] [ng/mL] | Kd (3×FLAG-IL-6 [3]) [nM] | koff (3×FLAG-IL-6 [3]) [s⁻¹] | kon (3×FLAG-IL-6 [3]) [M⁻¹ s⁻¹] | other results
1 | 13A8c-PEG-22H8c bispecific (bispecific antibody, C-terminal azidohomoalanine (Aha) joined through a 20 kDa PEG to the Aha of the other scFv) scFv 1: DIQLTQSPSFLSASVGDRVTITCQASQSISNELSWYQQKPGKAPKLLIYRASTLTSGVPSRFSGSGSGTEFTLTISSLQPEDFATYYCQQGYNSNDVDNVFGGGTKVEIKGGGGSGGGGSGGGGSGGGGSEVQLVESGGGLVQPGGSLRLSCTVSGIDLSSYDLSWVRQAPGKGLEWVGYIYTDSSTWYANWAKGRFTISRDNSKNTLYLQLNSLRAEDTAVYYCARGSTDYAFDTRLDLWGQGTLVTVSS scFv 2: DIQLTQSPSFLSASVGDRVTITCQSSQTVYKNNLLSWYQQKPGKAPKLLIYLASTLASGVPSRFSGSGSGTEFTLTISSLQPEDFATYYCLGGYDDDADTAFGGGTKVEIKGGGGSGGGGSGGGGSGGGGSEVQLVESGGGLVQPGGSLRLSCTVSGFSLSTYTLNWVRQAPGKGLEWVGAISYDGGTAYANWAKGRFTISRDNSKNTLYLQLNSLRAEDTAVYYCARGFYVYAYIGDAFDPWGQGTLVTVSS | 0.246 | 0.234 |  |  |  | 
2 | 28D2 N-Aha (scFv, azidohomoalanine (Aha) in place of the single Met, at the N terminus, also called E. coli 28D2 scFv with Aha at the N term) scFv: MEDIQLTQSPSFLSASVGDRVTITCQASEDLFSSLAWYQQKPGKAPKLLIYSASTLASGVPSRFSGSGSGTDFTLTISSLQPEDFATYYCLGLYYYLTPDPIYGFGGGTKVEIKGGGGSGGGGSGGGGSGGGGSEVQLVESGGGLVQPGGSLRLSCTVSGLSLSKNAIAWVRQAPGKGLEWVGIIYAGGATTYASWAKGRFTISRDNSKNTLYLQLNSLRAEDTAVYYCAREYAGDSYYTGYTQLDLWGQGTLVTVSSGPPPPPHHHHHH |  |  | 0.062 | 8.99e-05 | 1.46e+06 | 
3 | 28D2-L Aha (scFv, azidohomoalanine (Aha) in place of a single Met in the Gly/Ser linker between VL and VH, also called E. coli 28D2 scFv with Aha in the Gly/Ser linker) scFv: MADIQLTQSPSFLSASVGDRVTITCQASEDLFSSLAWYQQKPGKAPKLLIYSASTLASGVPSRFSGSGSGTDFTLTISSLQPEDFATYYCLGLYYYLTPDPIYGFGGGTKVEIKGGGGSGMGGSGGGGSGGGGSEVQLVESGGGLVQPGGSLRLSCTVSGLSLSKNAIAWVRQAPGKGLEWVGIIYAGGATTYASWAKGRFTISRDNSKNTLYLQLNSLRAEDTAVYYCAREYAGDSYYTGYTQLDLWGQGTLVTVSSGPPPPPHHHHHH |  |  | 0.053 | 6.88e-05 | 1.3e+06 | 
4 | 9C8 humanized scFv (9C8 Hum scFv v3-1) (scFv, the sentence before it names 9C8 v3-1; purified by 6×His tag; also called 9C8 scFv v3-1; 9C8v3-1) scFv: DIQMTQSPSSVSASVGDRVTITCQASQSISNELSWYQQKPGKAPKLLIYRTSTLASGVPSRFSGSGSGTDFTLTISSLQPEDFATYYCQQGYNSNDVDNVFGGGTKVEIKGGGGSGGGGSGGGGSGGGGSEVQLVESGGGLVQPGGSLRLSCTVSGIDLSSYDMSWVRQAPGKGLEWVGYIYTDSSTYYANWAKGRFTISRDNSKNTLYLQMNSLRAEDTAVYYCARGSTDYAFDTRLDLWGQGTLVTVSSGPPPPPHHHHHH |  |  |  |  |  | EC50, inhibition of IL-6 induced B9 cell proliferation (human IL-6 [4]): 0.319 ng/mL; Kd (3×FLAG-IL-6 [5]): 0.089 nM; koff (3×FLAG-IL-6 [5]): 4.03e-05 s⁻¹; kon (3×FLAG-IL-6 [5]): 447000 M⁻¹ s⁻¹

More lines, main results first:

Row | EC50, B9 cell line bioassay (human IL-6 [1]) [ng/mL] | EC50, mouse splenocyte assay [2] [ng/mL] | Kd (3×FLAG-IL-6 [3]) [nM] | koff (3×FLAG-IL-6 [3]) [s⁻¹] | kon (3×FLAG-IL-6 [3]) [M⁻¹ s⁻¹] | Binder | other results
5 | 0.138 | 2.7 |  |  |  | 13A8c-40KPEG-31A12c bispecific (bispecific antibody, C-terminal azidohomoalanine (Aha) joined through a linear 40 kDa PEG to the Aha of the other scFv) scFv 1: DIQLTQSPSFLSASVGDRVTITCQASQSISNELSWYQQKPGKAPKLLIYRASTLTSGVPSRFSGSGSGTEFTLTISSLQPEDFATYYCQQGYNSNDVDNVFGGGTKVEIKGGGGSGGGGSGGGGSGGGGSEVQLVESGGGLVQPGGSLRLSCTVSGIDLSSYDLSWVRQAPGKGLEWVGYIYTDSSTWYANWAKGRFTISRDNSKNTLYLQLNSLRAEDTAVYYCARGSTDYAFDTRLDLWGQGTLVTVSS scFv 2: DIQLTQSPSFLSASVGDRVTITCQASEDIESYLAWYQQKPGKAPKLLIYSASTLTSGVPSRFSGSGSGTEFTLTISSLQPEDFATYYCLGADDTTTVFGGGTKVEIKGGGGSGGGGSGGGGSGGGGSEVQLVESGGGLVQPGGSLRLSCTASGFSLSSYWLTWVRQAPGKGLEWVGTIATSSTYYASWAKGRFTISRDNSKNTLYLQLNSLRAEDTAVYYCARGLTTDYDLDLWGQGTLVTVSS | 
6 | 0.933 | 5.66 |  |  |  | 13A8n-PEG-45G5c bispecific (bispecific antibody, C-terminal azidohomoalanine (Aha) joined through a 20 kDa PEG to the Aha of the other scFv; N-terminal azidohomoalanine (Aha) joined through a 20 kDa PEG to the Aha of the other scFv) scFv 1: DIQLTQSPSFLSASVGDRVTITCQASQSISNELSWYQQKPGKAPKLLIYRASTLTSGVPSRFSGSGSGTEFTLTISSLQPEDFATYYCQQGYNSNDVDNVFGGGTKVEIKGGGGSGGGGSGGGGSGGGGSEVQLVESGGGLVQPGGSLRLSCTVSGIDLSSYDLSWVRQAPGKGLEWVGYIYTDSSTWYANWAKGRFTISRDNSKNTLYLQLNSLRAEDTAVYYCARGSTDYAFDTRLDLWGQGTLVTVSS scFv 2: MADIQLTQSPSFLSASVGDRVTITCQSSQSIYNNNLLSWYQQKPGKAPKLLIYFASTLASGVPSRFSGSGSGTEFTLTISSLQPEDFATYYCLGGYDDDADTAFGGGTKVEIKGGGGSGGGGSGGGGSGGGGSEVQLVESGGGLVQPGGSLRLSCTVSGFSLSVYAINWVRQAPGKGLEWVGIINDVDDTAYSAWAKGRFTISRDNSKNTLYLQLNSLRAEDTAVYYCARGYLSYAYAGDAFDPWGQGTLVTVSSGM | 
